Test [1] has as its target T1, human 4EHP (residues 45-234) for ITC (human, UniProt O60573 45-234).
T1 chain: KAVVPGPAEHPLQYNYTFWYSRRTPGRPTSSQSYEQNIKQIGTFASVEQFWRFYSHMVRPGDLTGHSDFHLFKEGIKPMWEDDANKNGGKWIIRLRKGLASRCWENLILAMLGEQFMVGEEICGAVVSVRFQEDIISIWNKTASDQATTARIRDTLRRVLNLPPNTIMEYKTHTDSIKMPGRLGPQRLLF
The test can be described thus: ITC; VP-ITC, 25 °C; TRS (1-74, 0.6 mM) in the syringe titrated against 4EHP (45-234, 0.035 mM); single binding site model. In general terms: ITC needs no label: the signal is the heat of the interaction.

The target of test [2] is T1, human 4EHP (residues 45-234) for ITC. In words: ITC.

By Kd is commonly meant the free concentration of one partner at which half of the binding sites on the other are occupied at equilibrium, for simple one-to-one binding. By stoichiometry N is commonly meant a count of units in the complex or per binding partner.

B1: human TRS UNE-T (residues 1-74) with C-terminal His tag (domain or fragment)
chain: MFEEKASSPSGKMGGEEKPIGAGEEKQKEGGKKKNKEGSGDGGRAELNPWPEYIYTRLEMYNILKAEHDSILAE
For the molecule B1, in test [1], the Kd stood at 2480 nM and the stoichiometry N is 1. In test [2], the Ka is 403000 M⁻¹.
